The labels stand for the following.
B1: Twister Ribozyme (parent)
chain: AACACUGCCAAUGCCGGUCCCAAGCCCGGAUAAAAGUGGAGGGGGCGG

These results are taken from the RNAGym collection of RNA variant scans (doi:10.7554/elife.80360).

In this data set the parent is B1. Put plainly: self-cleavage, relative activity (ratio to wild type); higher = more cleavage; co-transcriptional.
Turning to AACACAGCCAAUGCCGAUCCCAAGCCCGGAUAAAAGUGGAGGGGGCGG, the self-cleavage worked out at 0.181.
In the case of AACACAGCCAAUGCCGCUCCCAAGCCCGGAUAAAAGUGGAGGGGGCGG it was 0.0763.
As for AACAUUGCCAAUGCCGGUCCCAAGCCCGGAUGAAAGUGGAGGGGGCGG, the figure is 0.795; as for AACACAGCCAAUGCUGGUCCCAAGCCCGGAUAAAAGUGGAGGGGGCGG, 0.649.
As for AACAUUGCCAUUGCCGGUCCCAAGCCCGGAUAAAAGUGGAGGGGGCGG, the figure is 0.564; as for AACAUUGCCACUGCCGGUCCCAAGCCCGGAUAAAAGUGGAGGGGGCGG, 0.541.
Turning to AACACAGCCAAUGCCGGUCCCAAUCCCGGAUAAAAGUGGAGGGGGCGG, the self-cleavage was 0.0898.
As for AACACAGCCAAUGCCGGUCCCAACCCCGGAUAAAAGUGGAGGGGGCGG, the figure is 0.399.
As for AACAUUGACAAUGCCGGUCCCAAGCCCGGAUAAAAGUGGAGGGGGCGG, the figure is 0.193.
Take AACAUUGGCAAUGCCGGUCCCAAGCCCGGAUAAAAGUGGAGGGGGCGG: the self-cleavage was 0.132.
In the case of AACAUUGCCAAUGCCGGUCCCAAGCCCGGAUAAAAGUGGAGGGGGUGG it was 0.825.
For the variant AACAUUGCCAAUGCCGGUCCCAAGCCCGGAUAAAAGUGGAGGGGGGGG, the self-cleavage was found to be 0.776.
As for AACAUUGCCAAUGCCGGUCCCAAGCCCGAAUAAAAGUGGAGGGGGCGG, the figure is 0.739; as for AACAUUGCCAAUGCUGGUCCCAAGCCCGGAUAAAAGUGGAGGGGGCGG, 0.762; as for AACAUUGCCAAUGCAGGUCCCAAGCCCGGAUAAAAGUGGAGGGGGCGG, 0.385.
As to AACAUUGCCAAUGCGGGUCCCAAGCCCGGAUAAAAGUGGAGGGGGCGG, the self-cleavage was found to be 0.0698.
As for AACACAGUCAAUGCCGGUCCCAAGCCCGGAUAAAAGUGGAGGGGGCGG, the figure is 0.175.
As for AACACAGACAAUGCCGGUCCCAAGCCCGGAUAAAAGUGGAGGGGGCGG, the figure is 0.104; as for AACACAGCCAAUGCCGGUCCCAGGCCCGGAUAAAAGUGGAGGGGGCGG, 0.14.
As for AACACAGCCAAUGCCGGUCCCAUGCCCGGAUAAAAGUGGAGGGGGCGG, the self-cleavage is 0.191.
As for AACACAGCCAAUGCCGGUCCCACGCCCGGAUAAAAGUGGAGGGGGCGG, the self-cleavage is 0.097.
As for AACACAGCCAAUGCCGGUCCCAAGCCCGGAUAAAAGUGGUGGGGGCGG, the self-cleavage amounted to 0.116.
As for AACAUUGCCAAUGCCGGUCCCAAGCCCGGAUAAAAGUGGUGGGGGCGG, the figure is 0.146.
As for AACACAGCCAAUGCCGGUCCCAAGCCCGGUUAAAAGUGGAGGGGGCGG, the self-cleavage was determined as 0.981.
As for AACAUUGCCAAUGCCGGUCCCAAGCCCGGAUAAAAGCGGAGGGGGCGG, the figure is 0.283; as for AACAUUGCCAAUGCCGGUCCCAAGCCCGGAUAAAAGAGGAGGGGGCGG, 0.547; as for AACAUUGCCAAUGCCGGUCCCAAGCCCGGAUAAAAGGGGAGGGGGCGG, 0.432.
As to AACAUUGCCAAUGCCGGUCCCAAGCCUGGAUAAAAGUGGAGGGGGCGG, the self-cleavage was found to be 0.483.
In the case of AACACAGCCAAUGGCGGUCCCAAGCCCGGAUAAAAGUGGAGGGGGCGG it was 0.124; in that of AACAUUGCCAAUGCCGGUCCCAAGCCCGGAUAAAAGUGGAAGGGGCGG, 0.214.
In the case of AACAUUGCCAAUGCCGUUCCCAAGCCCGGAUAAAAGUGGAGGGGGCGG it was 0.116; in that of AACAUUGCCAAUGCCGCUCCCAAGCCCGGAUAAAAGUGGAGGGGGCGG, 0.0605; in that of AACAUUGCCAAUGCCGGUGCCAAGCCCGGAUAAAAGUGGAGGGGGCGG, 0.107.
As for AACAUUGCCAAUGCCGGUCCCAAGCCCGGAUAAAAGUGGAGGGCGCGG, the figure is 0.864.
Turning to AACAUUGCCCAUGCCGGUCCCAAGCCCGGAUAAAAGUGGAGGGGGCGG, the self-cleavage was 1.06.
In the case of AACAUUGCCUAUGCCGGUCCCAAGCCCGGAUAAAAGUGGAGGGGGCGG it was 0.816; in that of AACAUUGCCGAUGCCGGUCCCAAGCCCGGAUAAAAGUGGAGGGGGCGG, 0.869; in that of AACACACCCAAUGCCGGUCCCAAGCCCGGAUAAAAGUGGAGGGGGCGG, 0.234.
In the case of AACACAGCGAAUGCCGGUCCCAAGCCCGGAUAAAAGUGGAGGGGGCGG it was 0.244; in that of AACAUUGCCAAUCCCGGUCCCAAGCCCGGAUAAAAGUGGAGGGGGCGG, 0.13; in that of AACACAGCCAAUGCCGGUCCCAAGCACGGAUAAAAGUGGAGGGGGCGG, 0.144.
AACACAGCCAAUGCCGGUCCCAAGCGCGGAUAAAAGUGGAGGGGGCGG: the self-cleavage was determined as 0.132.
In the case of AACAUUGCCAAUGCCGGUCGCAAGCCCGGAUAAAAGUGGAGGGGGCGG it was 0.102; in that of AACAUUGCCAAUGCCGGUCCAAAGCCCGGAUAAAAGUGGAGGGGGCGG, 0.126.
In the case of AACAUUGCCAAUGCCGGUCCUAAGCCCGGAUAAAAGUGGAGGGGGCGG it was 0.0809; in that of AACAUUGCCAAUGCCGGUCCCAAGCCCGGAUAAUAGUGGAGGGGGCGG, 0.631; in that of AACAUUGCCAAUGCCGGUCCCAAGCCCGGAUAAGAGUGGAGGGGGCGG, 0.511.
AACAUUGCCAAUGCCGGUCCCAAGCCCGGCUAAAAGUGGAGGGGGCGG: the self-cleavage was 0.542.
As for AACAUUGCCAAUGCCGGCCCCAAGCCCGGAUAAAAGUGGAGGGGGCGG, the figure is 0.24; as for AACAUGGCCAAUGCCGGUCCCAAGCCCGGAUAAAAGUGGAGGGGGCGG, 0.261.
As for AACAUAGCCAAUGCCGGUCCCAAGCCCGGAUAAAAGUGGAGGGGGCGG, the self-cleavage was determined as 0.674.
In the case of AACACAGCCAAUGCCGGUCCCAAGCCCGGAUAAAAGUGGAGGGGGCGG it was 1.03; in that of AACAUUGCCAAUGCCGGUCCCAAGCCCGGAUAAAAGUGGAGGGGGCGG, 0.887; in that of AACAUUGCCAAUGCCGGUCCCAAGCCCGGAUAAAAGUGGAGCGGGCGG, 0.287.
